This note sets out measurements from doi:10.1101/568972v1 (biorxiv, 2019).

The target of one data set is T1, AceKMs (Mycolicibacterium smegmatis, UniProt A0QQK1).
T1 sequence (A0QQK1 1-376): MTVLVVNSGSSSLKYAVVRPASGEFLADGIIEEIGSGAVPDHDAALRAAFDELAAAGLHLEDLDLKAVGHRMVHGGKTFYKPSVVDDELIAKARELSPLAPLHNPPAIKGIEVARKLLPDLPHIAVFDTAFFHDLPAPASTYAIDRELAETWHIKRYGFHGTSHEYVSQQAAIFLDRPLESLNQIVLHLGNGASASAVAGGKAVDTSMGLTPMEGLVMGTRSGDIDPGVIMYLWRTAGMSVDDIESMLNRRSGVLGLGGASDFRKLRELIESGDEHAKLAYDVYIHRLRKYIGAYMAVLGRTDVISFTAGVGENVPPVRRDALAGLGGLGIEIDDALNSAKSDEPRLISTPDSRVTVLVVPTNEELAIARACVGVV
Briefly: HPLC of ATP/ADP, steady-state kinetics. As to conditions: read-out: KM (substrate); ADP in excess; 10 mM MgCl2, pH 9.0, room temperature. It is filed as biochemical.

Substrate in data set [1]: NC(=O)C1=CN([C@@H]2O[C@H](COP(=O)(O)OP(=O)(O)OC[C@H]3O[C@@H](n4cnc5c(N)ncnc54)[C@H](O)[C@@H]3O)[C@@H](O)[C@H]2O)C=CC1
Briefly: purified protein. As to conditions: O2, 50 mM sodium phosphate pH 7, 1 mg/mL BSA, ambient temperature.

Substrate in data set [2]: O=C(CO)COP(=O)(O)O
Briefly: purified protein. As to conditions: acceptor aldehyde not stated; 'DHAP' printed as table sub-heading.

Substrate in data set [3]: NC(=O)c1ccc[n+]([C@@H]2O[C@H](COP(=O)(O)OP(=O)(O)OC[C@H]3O[C@@H](n4cnc5c(N)ncnc54)[C@H](O)[C@@H]3O)[C@@H](O)[C@H]2O)c1
Nature of the data set: purified protein, by the assay type.

Substrate in data set [4]: O=P(O)(O)OC[C@H](O)CO
Briefly: purified protein, by the assay type.

Substrate in data set [5]: O=P(O)(O)OC[C@H](O)CO
Briefly: purified protein. As to conditions: NAD+ co-substrate, 50 mM sodium phosphate pH 9.0, ambient temperature.

Substrate in data set [6]: Nc1ncnc2c1ncn2[C@@H]1O[C@H](COP(=O)(O)OP(=O)(O)O)[C@@H](O)[C@H]1O
Briefly: purified protein, by the assay type.

Substrate in data set [7]: OCC(O)CO
Nature of the data set: purified protein, by the assay type. As to conditions: pH 9.0.

Substrate in data set [8]: OCC(O)CO
Nature of the data set: purified protein. It is filed as biochemical, Thermococcus kodakarensis. As to conditions: ATP in excess, 10 mM MgCl2, 50 mM NaHCO3 pH 9.0, room temperature.

The Km is the concentration of substrate that gives half-maximal velocity. `CC(=O)OP(=O)(O)O` [acetyl phosphate]: on AceKMs, the Km was found to be 390 ± 8 µM.

B1: NoxCa (Anaerocolumna aminovalerica) (protein)
chain: MKIVVIGCTHAGTAAVKTILKENPEAEITIFERNDNISFLSCGIALYVGGVVKDPAGLFYSNPEELSKMGANVKIKHNVKSIDTKSKKVIAEDMNTGEEIEVSYDKLVNTTGSWPIIPPIPGIESKNILLCKNYDQANVIIRQTKDAKKIVIVGGGYIGIELVEAFQKSGKQVTLIDGLDRILNKYLDKEFTDILEDDLKKNGINLALDQCVKSFKANENGEVTSVETTKGEYEADMVILCVGFRPNNELLKGKVDMLPNDAIIVDEYMRTSDPDIFAAGDSCAVHYNPNGNYAYIPLATNAVRMGMLIGKNISTPKVKYRGTQSTSGLNLFGYNIGSTGVTVSGAPQIGLNVRSVIVKDNYRPEFMPTNEEIIMQLVYEVGTNRIVGGQVMSKYDITQSANTLSLAIQNKMTIEDLAYVDFFFQPHFDRPWNYLNILGLAALEQEGL
As a reminder, the kcat is the maximal rate divided by the concentration of active sites. On to B1, for which, in the data set “purified protein [1]”, the Km is reported as 258 ± 21 µM and the kcat is listed as 1,252 ± 182 s-1.

B2: FruASc (Staphylococcus carnosus subsp. carnosus TM300) (protein)
chain: NQEQFDKIKNGKGFIAALDQSGGSTPKALKDYGVEENEYSNDEEMFNLVHDMRTRIITSPAFNGEKILGAILFEQTMDREVEGKYTGSYLADKGIVPFLKVDKGLAEEADGVQLMKPIPDLDKLLDRANERGIFGTKMRSNILENNKEAIEKVVKQQFEVAKEIIAAGLVPIIEPEVNINAKDKEAIEANLAEAIKAELDNLKKDQYVMLKLTIPTKVNAYSELIEHPQVIRVVALSGGYSRDEANKILKQNDGLIASFSRALVSDLNAQQSDAEFNEKLQEAIDTIFDASVNKA
With B2, in “purified protein [2]”, the Km is 500 ± 80 µM and the catalytic constant (kcat) was found to be 16 ± 2 s⁻¹.

B3: G3PDEc-NOXCa-Est2Aa (Escherichia coli K-12) (protein)
chain: MNQRNASMTVIGAGSYGTALAITLARNGHEVVLWGHDPEHIATLERDRCNAAFLPDVPFPDTLHLESDLATALAASRNILVVVPSHVFGEVLRQIKPLMRPDARLVWATKGLEAETGRLLQDVAREALGDQIPLAVISGPTFAKELAAGLPTAISLASTDQTFADDLQQLLHCGKSFRVYSNPDFIGVQLGGAVKNVIAIGAGMSDGIGFGANARTALITRGLAEMSRLGAALGADPATFMGMAGLGDLVLTCTDNQSRNRRFGMMLGQGMDVQSAQEKIGQVVEGYRNTKEVRELAHRFGVEMPITEEIYQVLYCGKNAREAALTLLGRARKDERSSH
As a reminder, the kcat/Km is the second-order rate constant that governs catalysis at low substrate concentration. In the case of B3, the Km in data set [3] stood at 164 ± 10 µM. In data set [4], the Michaelis constant (Km) was 659 ± 47 µM, the kcat amounted to 7 ± 0.6 s⁻¹ and the kcat/Km came out at 11000 M⁻¹ s⁻¹.

B4: G3PDEc (Escherichia coli K-12) (protein)
chain: B3 chain
For B4, in “purified protein [5]”, the Km is given as 59 ± 4 µM and the kcat was determined as 85 ± 11 s⁻¹.

B5: GlpKTk-AceKMs-Est2Aa (Mycolicibacterium smegmatis MC2 155) (protein)
chain: T1 sequence (A0QQK1 1-376)
As to B5, the Michaelis constant (Km) in [6] amounted to 398 ± 29 µM.

B6: GlpKTK-AceKMs-Est2Aa (Thermococcus kodakarensis KOD1) (protein)
chain: MEKFVLSLDEGTTSARAIIFDRESNIHGIGQYEFPQHYPRPGWVEHNPEEIWDAQLRAIKDAIQSARIEPNQIAAIGVTNQRETTLVWDKDGKPLYNAIVWQCRRTAEMVEEIKREYGTMIKEKTGLVPDAYFSASKLKWLLDNVPGLREKAEKGEVMFGTVDTFLIYRLTGEHVTDYSNASRTMLFNIKKLDWDDELLELFDIPESVLPEVRESSEVYGYTKKELLGAEIPVSGDAGDQQAALFGQAAFEAGMVKATYGTGSFILVNTDKMVLYSDNLLTTIAWGLNGRVSYALEGSIFVTGAAVQWLRDGIKIIKHASETEELATKLESNEGVYFVPAFVGLGAPYWDQFARGIIIGITRGTGREHLARATLEAIAYLTRDVVDEMEKLVQIKELRVDGGATANDFLMQFQADILNRKVIRPVVKETTALGAAYLAGLAVDYWADTREIAELWKAERIFEPKMDEKTRERLYKGWKEAVKRAMGWAKVVDSAKSN
Turning to B6, in [7], the Km is 16 ± 4 µM, the kcat worked out at 1400 ± 54 s⁻¹ and the kcat/Km stood at 8.6e+07 M⁻¹ s⁻¹.

B7: GlpKTk (Thermococcus kodakarensis KOD1) (protein)
chain: B6 chain
For B7, in “purified protein [8]”, the Km worked out at 15 ± 2 µM and the kcat came to 940 ± 8 s⁻¹.
